Assays:
Format in all cases: physicochemical
[1] = Stability of salmon calcitonin in coating on flood-coated microneedle arrays stored at 40° C./96% RH (HPLC); settings: salmon calcitonin 5 mg/mL in PBS
Description: (§1) The protein or polypeptide content in the formulation coated on the microneedle arrays was determined using an Agilent 1100 HPLC system (Agilent Technologies, Wilmington, Del.) equipped with a binary pump, well-plated thermostated autosampler, thermostated column compartment, and a diode array UV detector. A Zorbax 300SB-C8 column (Agilent Technologies, Wilmington, Del.) having a 5 μm particle size and 2.1×150 mm inner diameter was used for the separations. The column was maintained at 50° C. The mobile phase consisted of two eluents. Eluent A was 0.1% TFA (trifluoroacetic acid) in water and eluent B was 0.1% TFA in acetonitrile (Spectrum Chemical, New Brunswick, N.J.). A linear gradient from 80/20 to 50/50 (A/B) was applied over 30 minutes. The flow rate was 0.4 mL/minute and the UV detection wavelength was set at 214 nm. The total run time was 34 minutes and the sample injection volume was 15 μL.
(§2) A sample formulation containing 5 mg/mL of salmon calcitonin and 12 mg/mL of L-histidine monohydrochloride (His-HCl) in PBS was prepared. The pH of the sample formulation was 5.5. A control formulation was also prepared containing 5 mg/mL of salmon calcitonin in PBS. […] The pH of the control formulation was 6.0-6.5. Microneedle arrays were coated with either the sample or the control formulation. The coating was applied by dropwise addition of 50 μL of the formulation to the portion of the array defined by the octagon shaped pattern of microneedles. The flood coated arrays (both sample and control formulation coated) were dried in an oven at 35° C. for about 15 hours.
(§3) After drying, the coated arrays were placed in a storage chamber that was maintained at 40° C. and 96% relative humidity (RH). The salmon calcitonin content of the coated arrays was determined following storage in the chamber for 1, 3, 7, and 14 days. At the designated time point, an array was taken from the chamber and washed with PBS (1 mL) to remove the coating from the array. An aliquot of the resulting wash solution was analyzed for salmon calcitonin content using the HPLC method described above. Reference standards were prepared by measuring the initial salmon calcitonin content of freshly coated arrays (both sample and control formulation coated). The arrays used as reference standards were stored in a refrigerator at about 4° C. and analyzed within one day of being prepared. The percentage of undegraded salmon calcitonin remaining in the coating at each time point was determined by measuring the peak area for salmon calcitonin in the selected coating and dividing it by the peak area measured for salmon calcitonin in the corresponding reference standard.
The same procedure as described in Example 3 was used with the exception that the sample formulation contained 12 mg/mL of L-arginine hydrochloride, instead of L-histidine monohydrochloride. The pH of the sample formulation was 6.0-6.5.

[2] = Stability of lysozyme in coating on flood-coated microneedle arrays stored at 40° C./96% RH (HPLC); settings: lysozyme 10 mg/mL in PBS
Description: as §1
as §2, with “containing 10” for “containing 5”, “of lysozyme” for “of salmon calcitonin”, “was 5.5-6.0.” for “was 5.5.”, “was 6.5.” for “was 6.0-6.5.”
as §3, with “lysozyme” for “salmon calcitonin”, “(2” for “(1”, “lysozyme” for “initial salmon calcitonin”
The same procedure as described in Example 7 was used with the exception that the sample formulation contained 12 mg/mL of L-arginine hydrochloride, instead of L-histidine monohydrochloride. The pH of the sample formulation was 6.5.

[3] = Stability of PTH in coating on flood-coated microneedle arrays stored at 40° C./96% RH (HPLC); settings: PTH 10 mg/mL in PBS
Description: as §1
Microneedle arrays were coated with either the sample or the control formulation. The coating was applied by dropwise addition of 50 μL of the formulation to the portion of the array defined by the octagon shaped pattern of microneedles. The flood coated arrays (both sample and control formulation coated) were dried in an oven at 35° C. for about 15 hours.
After drying, the coated arrays were placed in a storage chamber that was maintained at 40° C. and 96% relative humidity (RH). […] The arrays used as reference standards were stored in a refrigerator at about 4° C. and analyzed within one day of being prepared.

[4] = Amino Acid L-Arginine (Arg-HCl 12 mg/mL), Day 1 at 40° C./96% RH
[5] = Amino Acid L-Arginine (Arg-HCl 12 mg/mL), Day 3 at 40° C./96% RH
[6] = Amino Acid L-Arginine (Arg-HCl 12 mg/mL), Day 7 at 40° C./96% RH
[7] = Amino Acid L-Arginine (Arg-HCl 12 mg/mL), Day 14 at 40° C./96% RH
[8] = Amino Acid L-Arginine (Arg-HCl 12 mg/mL), Initial
[9] = Amino Acid L-Histidine (His-HCl 12 mg/mL), Day 1 at 40° C./96% RH
[10] = Amino Acid L-Histidine (His-HCl 12 mg/mL), Day 3 at 40° C./96% RH
[11] = Amino Acid L-Histidine (His-HCl 12 mg/mL), Day 7 at 40° C./96% RH
[12] = Amino Acid L-Histidine (His-HCl 12 mg/mL), Day 14 at 40° C./96% RH
[13] = Amino Acid L-Histidine (His-HCl 12 mg/mL), Initial
[14] = Amino Acid None (control), Day 1 at 40° C./96% RH
[15] = Amino Acid None (control), Day 3 at 40° C./96% RH
[16] = Amino Acid None (control), Day 7 at 40° C./96% RH
[17] = Amino Acid None (control), Day 14 at 40° C./96% RH
[18] = Amino Acid None (control), Initial

Salmon calcitonin
Percent of Initial Salmon Calcitonin Content in the Coating [1, 4]: 5.8%
Percent of Initial Salmon Calcitonin Content in the Coating [1, 5]: 0.3%
Percent of Initial Salmon Calcitonin Content in the Coating [1, 6]: 0%
Percent of Initial Salmon Calcitonin Content in the Coating [1, 7]: 0%
Percent of Initial Salmon Calcitonin Content in the Coating [1, 8]: 100%
Percent of Initial Salmon Calcitonin Content in the Coating [1, 9]: 30.3%
Percent of Initial Salmon Calcitonin Content in the Coating [1, 10]: 31.7%
Percent of Initial Salmon Calcitonin Content in the Coating [1, 11]: 7.5%
Percent of Initial Salmon Calcitonin Content in the Coating [1, 12]: 2.7%
Percent of Initial Salmon Calcitonin Content in the Coating [1, 13]: 100%
Percent of Initial Salmon Calcitonin Content in the Coating [1, 14]: 21.5%
Percent of Initial Salmon Calcitonin Content in the Coating [1, 15]: 0.9%
Percent of Initial Salmon Calcitonin Content in the Coating [1, 16]: 0.1%
Percent of Initial Salmon Calcitonin Content in the Coating [1, 17]: 0%
Percent of Initial Salmon Calcitonin Content in the Coating [1, 18]: 100%

lysozyme
Percent of Initial Lysozyme Content in the Coating [2, 4]: 52.6%
Percent of Initial Lysozyme Content in the Coating [2, 5]: 33.1%
Percent of Initial Lysozyme Content in the Coating [2, 6]: 22.4%
Percent of Initial Lysozyme Content in the Coating [2, 7]: 23.0%
Percent of Initial Lysozyme Content in the Coating [2, 8]: 100%
Percent of Initial Lysozyme Content in the Coating [2, 9]: 100.0%
Percent of Initial Lysozyme Content in the Coating [2, 10]: 80.6%
Percent of Initial Lysozyme Content in the Coating [2, 11]: 60.1%
Percent of Initial Lysozyme Content in the Coating [2, 12]: 53.3%
Percent of Initial Lysozyme Content in the Coating [2, 13]: 100%
Percent of Initial Lysozyme Content in the Coating [2, 14]: 26.9%
Percent of Initial Lysozyme Content in the Coating [2, 15]: 4.4%
Percent of Initial Lysozyme Content in the Coating [2, 16]: 1.9%
Percent of Initial Lysozyme Content in the Coating [2, 17]: 1.9%
Percent of Initial Lysozyme Content in the Coating [2, 18]: 100%

parathyroid hormone (1-34) (human) [PTH]
Percent of Initial PTH Content in the Coating [3, 4]: 3.5%
Percent of Initial PTH Content in the Coating [3, 5]: 0.8%
Percent of Initial PTH Content in the Coating [3, 6]: 0.4%
Percent of Initial PTH Content in the Coating [3, 7]: 0%
Percent of Initial PTH Content in the Coating [3, 8]: 100%
Percent of Initial PTH Content in the Coating [3, 9]: 85.2%
Percent of Initial PTH Content in the Coating [3, 10]: 60.3%
Percent of Initial PTH Content in the Coating [3, 11]: 23.1%
Percent of Initial PTH Content in the Coating [3, 13]: 100%
Percent of Initial PTH Content in the Coating [3, 14]: 1.3%
Percent of Initial PTH Content in the Coating [3, 15]: 0%
Percent of Initial PTH Content in the Coating [3, 16]: 0%
Percent of Initial PTH Content in the Coating [3, 17]: 0%
Percent of Initial PTH Content in the Coating [3, 18]: 100%

Reference: US10154957B2, “Microneedle device having a peptide therapeutic agent and an amino acid and methods of making and using the same” (3M INNOVATIVE PROPERTIES COMPANY, priority 2011, dated 2018)
